Results taken from article PMC3586275 (Biochemistry, 2009).

Molecular target: the molecule itself
Assay: SEC

B1: streptococcal coaggregation regulator (ScaR) (natural protein, Streptococcus gordonii, UniProt Q9RFN3 1-215, looked up)
chain: MTPNKEDYLKCLYELGTRHNKITNKEIAQLMQVSPPAVTEMMKKLLAEELLIKDKKAGYLLTDLGLKLVSDLYRKHRLIEVFLVHHLGYTTEEIHEEAEVLEHTVSDHFVERLDQLLDYPKACPHGGTIPAKGELLVEKHKLTLEEAKEKGDYILARVHDNFDLLTYLERNGLQVGKTIRFLGYDDFSHLYSLEVDGQEIQLAQPIAQQIYVEKI
- stoichiometry N: 2
